The source of these data is article PMC4310594.

In this data set the target is T1, RamA (Klebsiella pneumoniae (Ecl8?)) (UniProt Q48413).
T1 sequence: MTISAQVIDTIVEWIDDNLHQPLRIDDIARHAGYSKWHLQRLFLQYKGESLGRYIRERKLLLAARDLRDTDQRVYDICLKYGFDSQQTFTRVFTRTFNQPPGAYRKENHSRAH
As to the kind of experiment: EMSA. (In EMSA bound probe runs differently from free probe, usually more slowly.)
For “GCACTTCAACTAAATTCGCCTGAGTTTGGCTCATAAAATCATCCTTACTAAACACCTGACGGGCAAGCATGGCCCTTTCTTGCGCCACAATCACAACATTTTTACAGAATCTTACCTGCACAGGTTAGCGAAAGCTGGCATTTGTTTTACTTTTGGCACACATAAAGTCAAAATTAAGAATTCGTTACGCTGCGTAGGGATAACCCAGCGAGGCGACGATTATACCTGAAG (double strand) [yrbF promoter]”, the binding entry was “binds”.
To “GCCTGCATAATCGTTTCCTGACAAAAAAGGGTATTGTGACCGATAGTCGCCCACTTGCAAAACCTCTCTGCGCGGTTGGTCATTACCCACCGCACAAATGGGACGTGTTTTTTCGGCTGAAATCGTTACAATCAGGAAATCATACTATCTGGAGTGAACCATGTTAGAGCTTTTGAAAAGTCTGGTTTTTGCGGTCATCATGGTACCGGTGGTGATGGCGGTCATCCTGGGACTGATTTACGGTCTTGGCGAAGTGTTCAAC (double strand) [ybhT promoter]” belongs “binds”; to “GGAAACGATTGCCAGGACTGGTGCTTCAGGCCTGATAAACCGCTCACTTTGTTAACAACAGTGCTCAGATTTTAATGCATTATTAAAGATGCAGCTTTTCTGGCTGGCGCGTCCAGGATGCGCCAGGCTGGAAGAAGACCTTCAATCTGATGACGATGCTGTAGCAAAGTGAGCCTTTATGACTGACAAATCTGTTCCATTCTCGGTGCTCGATCTGGCGCCGATCCCGCAAGGATCTTCTGCCAAAGAAGCCTTTACCCA (double strand) [yhbW promoter]”, “binds”.
